Values of other authors in paper PMC11417995.

What was measured:
ubiquitin (Homo sapiens) [1] = molecular target: ubiquitin (Homo sapiens) (UniProt P0CG47); test: TR-FRET
ubiquitin (Homo sapiens) [2] = molecular target: ubiquitin (Homo sapiens) (UniProt P0CG47); test: NMR
ubiquitin (Homo sapiens) [3] = molecular target: ubiquitin (Homo sapiens) (UniProt P0CG47); test: SPR

CDC34A, sequence (P49427 whole entry): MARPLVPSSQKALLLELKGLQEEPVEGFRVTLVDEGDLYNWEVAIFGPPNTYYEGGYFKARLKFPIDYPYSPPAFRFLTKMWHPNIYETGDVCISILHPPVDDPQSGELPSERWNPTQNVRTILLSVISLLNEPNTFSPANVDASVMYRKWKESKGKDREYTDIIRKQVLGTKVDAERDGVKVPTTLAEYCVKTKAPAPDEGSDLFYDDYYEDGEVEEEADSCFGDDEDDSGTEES
UBE2K UBA, sequence (P61086 157-200): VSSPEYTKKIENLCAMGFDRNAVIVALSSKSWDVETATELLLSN
UBE2K, sequence (P61086 2-200): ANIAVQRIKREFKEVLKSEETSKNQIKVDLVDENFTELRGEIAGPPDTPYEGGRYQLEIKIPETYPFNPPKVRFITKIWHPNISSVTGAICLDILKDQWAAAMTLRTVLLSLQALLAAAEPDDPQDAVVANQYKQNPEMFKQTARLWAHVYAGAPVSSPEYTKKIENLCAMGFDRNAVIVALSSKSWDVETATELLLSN

Substance: CDC34A (from UniProt P49427)
- Kd (ubiquitin (Homo sapiens) [1]): 14 µM

Substance: UBE2K (from UniProt P61086)
- Kd (ubiquitin (Homo sapiens) [2]): 1250 µM

Substance: UBE2K UBA (from UniProt P61086)
- Kd (ubiquitin (Homo sapiens) [3]): 400 µM
